Test results from patent publication US20060287501A1 (Pieris, published 2006).

B1: I.1.6 Fab fragment (IN-1 mutant) (Fab, V domains shown)
VH: EVKLHESGPGLVRPGTSVKISCKASGYTFTNYWLGWVKQRPGHGLEWIGDIYPGGGYTNYNEKFKGKATLTADTSSSTAYMQLSSLTSEDSAVYFCARFYYGSSYWYFDVWGQGTTVTVSS
VL: DIELTQSPAIMAASVGETVTITCGASENIYGALNWYQRKQGKSPQLLIYGATNLADGMSSRFSGSGSGRQYSLKISSLHPDDVATYYCQNVLNLPCTFGAGTKLEIK
notes: Chimeric Fab, human IgG1/kappa constant domains
B2: I.1.11 Fab fragment (IN-1 mutant) (Fab, V domains shown)
VH: EVKLHESGPGLVRPGTSVKISCKASGYTFTNYWLGWVKQRPGHGLEWIGDIYPGGGYTNYNEKFKGKATLTADTSSSTAYMQLSSLTSEDSAVYFCARFYYGSSYWYFDVWGQGTTVTVSS
VL: DIELTQSPAIMAASVGETVTITCGASENIYGALNWYQRKQGKSPQLLIYGATNLADGMSSRFSGSGSGRQYSLKISSLHPDDVATYYCQNVLYTPCTFGAGTKLEIK
notes: as for B1
B3: I.2.5 Fab fragment (IN-1 mutant) (Fab, V domains shown)
VH: EVKLHESGPGLVRPGTSVKISCKASGYTFTNYWLGWVKQRPGHGLEWIGDIYPGGGYTNYNEKFKGKATLTADTSSSTAYMQLSSLTSEDSAVYFCARFYYGSSYWYFDVWGQGTTVTVSS
VL: DIELTQSPAIMAASVGETVTITCGASENIYGALNWYQRKQGKSPQLLIYGATNLADGMSSRFSGSGSGRQYSLKISSLHPDDVATYYCQNVLPCPVTFGAGTKLEIK
notes: as for B1
B4: I.4.4 Fab fragment (IN-1 mutant) (Fab, V domains shown)
VH: EVKLHESGPGLVRPGTSVKISCKASGYTFTNYWLGWVKQRPGHGLEWIGDIYPGGGYTNYNEKFKGKATLTADTSSSTAYMQLSSLTSEDSAVYFCARFYYGSSYWYFDVWGQGTTVTVSS
VL: DIELTQSPAIMAASVGETVTITCGASENIYGALNWYQRKQGKSPQLLIYGATNLADGMSSRFSGSGSGRQYSLKISSLHPDDVATYYCQNVLDRPLTFGAGTKLEIK
notes: as for B1
B5: I.2.4 Fab fragment (IN-1 mutant) (Fab, V domains shown)
VH: EVKLHESGPGLVRPGTSVKISCKASGYTFTNYWLGWVKQRPGHGLEWIGDIYPGGGYTNYNEKFKGKATLTADTSSSTAYMQLSSLTSEDSAVYFCARFYYGSSYWYFDVWGQGTTVTVSS
VL: DIELTQSPAIMAASVGETVTITCGASENIYGALNWYQRKQGKSPQLLIYGATNLADGMSSRFSGSGSGRQYSLKISSLHPDDVATYYCQNVLGTPFTFGAGTKLEIK
notes: as for B1

Target: T1, recombinant Nogo-A fragment NI-Fr2 (rat, UniProt Q9JK11 233-941, labelled with digoxigenin (molar ratio 5:1) in the colony screening assay)
T1 construct: Truncated rat Nogo-A with C-terminal Strep-tag, made in the E. coli periplasm; also called MI-Fr2; wild-type NI-Fr2
T1 sequence: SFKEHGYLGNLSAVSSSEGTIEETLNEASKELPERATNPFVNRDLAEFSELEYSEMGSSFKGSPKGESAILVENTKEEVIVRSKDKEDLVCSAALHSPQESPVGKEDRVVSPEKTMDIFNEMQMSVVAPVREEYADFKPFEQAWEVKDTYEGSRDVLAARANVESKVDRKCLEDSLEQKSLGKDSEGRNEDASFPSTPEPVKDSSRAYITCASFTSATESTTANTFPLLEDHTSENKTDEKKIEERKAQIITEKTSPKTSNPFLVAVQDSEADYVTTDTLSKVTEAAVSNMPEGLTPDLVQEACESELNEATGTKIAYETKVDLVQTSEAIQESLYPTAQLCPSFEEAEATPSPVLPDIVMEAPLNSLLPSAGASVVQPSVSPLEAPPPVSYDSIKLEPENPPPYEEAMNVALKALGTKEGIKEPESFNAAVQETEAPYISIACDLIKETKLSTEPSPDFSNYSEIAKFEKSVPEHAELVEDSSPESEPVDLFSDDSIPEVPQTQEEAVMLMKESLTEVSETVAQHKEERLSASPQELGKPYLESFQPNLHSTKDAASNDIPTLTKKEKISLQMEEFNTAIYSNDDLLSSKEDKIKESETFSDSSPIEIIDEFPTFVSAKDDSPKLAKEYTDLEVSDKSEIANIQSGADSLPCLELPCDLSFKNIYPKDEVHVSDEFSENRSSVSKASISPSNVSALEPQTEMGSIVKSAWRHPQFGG
Assay: filter-sandwich colony screening assay; Fab-ABD (pASK106) captured on HSA membrane, digoxigenin-labelled NI-Fr2
Protocol: The mutagenized gene fragment was recloned on the expression vector pASK106-IN1 (encoding a Fab fragment fused with an albumin-binding domain to the C-terminus of its light chain; König and Skerra, supra). E. coli JM83 was transformed with the ligation mixture and transformed cells harboring the pASK106 vector were plated on a hydrophilic membrane (GVWP, 0.22 μm; Millipore, Bedford, Mass.), placed on a petri dish with LB/Amp agar, such that approximately 500 colonies were obtained, and incubated at 37° C. for 8 to 9 h. In the meantime a hydrophobic membrane (Immobilon-P, 0.45 μm; Millipore) was coated with 10 mg/ml human serum albumin (HSA; Sigma, Deisenhofen, Germany) in PBS for four hours and blocked with 3% (w/v) BSA (Roth, Karlsruhe, Germany), 0.5% (v/v) Tween 20 in PBS. The membrane was washed twice with PBS, soaked in LB/Amp containing […], and placed on an LB/Amp agar plate supplemented with […]. The first membrane, carrying tiny colonies of the transformed cells, was then placed onto the second (hydrophobic) membrane. The filter sandwich was incubated for 16 h at 22° C. During this period the mutated IN-1 Fab fragments became secreted—and partially released from the colonies by leakage from the bacterial periplasm—and finally immobilized on the lower membrane via complex formation between HSA and ABD.
The first membrane with the still viable colonies was transferred to a fresh LB/Amp agar plate and stored at 4° C. The second membrane was washed three times in PBS containing 0.1% (v/v) Tween 20 (PBS/T) and the immobilized Fab fragments, each in a spot 30 corresponding to the position of the original colony, were probed for antigen binding. To this end recombinant Nogo-A fragment NI-FR2 was labeled at a molar ratio of 5:1 with digoxigenin-3-O-methylcarbonyl-e-aminocaproic acid N-hydroxy-succinimide ester (Roche Diagnostics, Mannheim, Germany) and applied to the membrane for one hour at a concentration of 30 or 50 μg/ml in PBS/T. After washing three times with PBS/T the membrane was incubated for one hour with 0.75 u/ml anti-digoxigenin Fab fragment conjugated with alkaline phosphatase (Roche Diagnostics) in 10 ml PBS/T. The membrane was finally washed twice with PBS/T and twice with PBS and the signals were developed using standard chromogenic substrates as described (Schlehuber et al., supra).

Binding result, binds:
B1
B2
B3
B4
B5
